B1: NLV3 TCR beta chain (CDR3β only) (parent)
chain: ASSPTGGSPSPLH
partner: NLCPMVATV

The variants in this test derive from B1. The test can be described thus: T-Switch: Jurkat TCRβ−/− cells expressing a CDR3 saturation-mutagenesis library, stained with two peptide-HLA-A*02:01 tetramers (original and novel peptide) plus anti-CD3, FACS-sorted into four gates, gDNA sequenced. As to conditions: with HLA-A*02:01 with peptide … (NLV 2-1, the novel peptide), tetramers 1 µg/mL, 30 min on ice, SP, DP and SW gates expanded about 10 days between rounds ('two to three rounds of selection' in the Methods), gate SW: higher = more of the variant in the gate that binds the novel peptide and not the original one = switched binding. Fold enrichment of the CDR3 variant in one FACS gate of a two-tetramer stain, unresolved parent, parent is a CDR3 fragment, scale: fold enrichment, numbering: sequential-on-construct, sequence starts at 1.
With […] (CDR3 as printed); P4R derived by comparing it with the table's wild-type CDR3 ASSPTGGSPSPLH, the enrichment is 0.

Turning to […] (CDR3 as printed); S10N derived by comparing it with the table's wild-type CDR3 ASSPTGGSPSPLH, the enrichment worked out at 0.

In the case of […] (CDR3 as printed); S8T derived by comparing it with the table's wild-type CDR3 ASSPTGGSPSPLH, the enrichment was 0.

[…] (CDR3 as printed); P9Q derived by comparing it with the table's wild-type CDR3 ASSPTGGSPSPLH: the enrichment is 0.

For […] (CDR3 as printed); H13A derived by comparing it with the table's wild-type CDR3 ASSPTGGSPSPLH, the enrichment came out at 0.

For […] (CDR3 as printed); H13E derived by comparing it with the table's wild-type CDR3 ASSPTGGSPSPLH, the enrichment is 0.

Take […] (CDR3 as printed); P9K derived by comparing it with the table's wild-type CDR3 ASSPTGGSPSPLH: the enrichment amounted to 0.

In the case of […] (CDR3 as printed); S10A derived by comparing it with the table's wild-type CDR3 ASSPTGGSPSPLH, the enrichment was 0.

For […] (CDR3 as printed); H13C derived by comparing it with the table's wild-type CDR3 ASSPTGGSPSPLH, the enrichment is 0.

For the variant […] (CDR3 as printed); S10H derived by comparing it with the table's wild-type CDR3 ASSPTGGSPSPLH, the enrichment amounted to 0.

Regarding […] (CDR3 as printed); G6C derived by comparing it with the table's wild-type CDR3 ASSPTGGSPSPLH, the enrichment is 0.

[…] (CDR3 as printed); S10V derived by comparing it with the table's wild-type CDR3 ASSPTGGSPSPLH: the enrichment came out at 0.

[…] (CDR3 as printed); S3D derived by comparing it with the table's wild-type CDR3 ASSPTGGSPSPLH: the enrichment worked out at 0.

As for […] (CDR3 as printed); L12N derived by comparing it with the table's wild-type CDR3 ASSPTGGSPSPLH, the enrichment stood at 0.

As for […] (CDR3 as printed); G6D derived by comparing it with the table's wild-type CDR3 ASSPTGGSPSPLH, the enrichment came out at 0.

For the variant […] (CDR3 as printed); H13N derived by comparing it with the table's wild-type CDR3 ASSPTGGSPSPLH, the enrichment is 0.

Turning to […] (CDR3 as printed); H13M derived by comparing it with the table's wild-type CDR3 ASSPTGGSPSPLH, the enrichment worked out at 0.

Turning to […] (CDR3 as printed); P11S derived by comparing it with the table's wild-type CDR3 ASSPTGGSPSPLH, the enrichment is 0.

Regarding […] (CDR3 as printed); P11C derived by comparing it with the table's wild-type CDR3 ASSPTGGSPSPLH, the enrichment came to 0.

As to […] (CDR3 as printed); S2V derived by comparing it with the table's wild-type CDR3 ASSPTGGSPSPLH, the enrichment is 0.

In the case of […] (CDR3 as printed); T5A derived by comparing it with the table's wild-type CDR3 ASSPTGGSPSPLH, the enrichment was 0.

For […] (CDR3 as printed); S8E derived by comparing it with the table's wild-type CDR3 ASSPTGGSPSPLH, the enrichment turned out to be 0.

As to […] (CDR3 as printed); T5C derived by comparing it with the table's wild-type CDR3 ASSPTGGSPSPLH, the enrichment was 0.

As for […] (CDR3 as printed); P11G derived by comparing it with the table's wild-type CDR3 ASSPTGGSPSPLH, the enrichment came out at 0.

As for […] (CDR3 as printed); S3Q derived by comparing it with the table's wild-type CDR3 ASSPTGGSPSPLH, the enrichment was found to be 0.

For […] (CDR3 as printed); P4C derived by comparing it with the table's wild-type CDR3 ASSPTGGSPSPLH, the enrichment is 0.

Turning to […] (CDR3 as printed); H13W derived by comparing it with the table's wild-type CDR3 ASSPTGGSPSPLH, the enrichment turned out to be 0.

For the variant […] (CDR3 as printed); S10L derived by comparing it with the table's wild-type CDR3 ASSPTGGSPSPLH, the enrichment is 0.

For […] (CDR3 as printed); S8H derived by comparing it with the table's wild-type CDR3 ASSPTGGSPSPLH, the enrichment stood at 0.

Take […] (CDR3 as printed); G6L derived by comparing it with the table's wild-type CDR3 ASSPTGGSPSPLH: the enrichment is 0.

[…] (CDR3 as printed); A1Y derived by comparing it with the table's wild-type CDR3 ASSPTGGSPSPLH: the enrichment worked out at 0.

Consider […] (CDR3 as printed); T5R derived by comparing it with the table's wild-type CDR3 ASSPTGGSPSPLH, for which the enrichment came to 0.

With […] (CDR3 as printed); H13Y derived by comparing it with the table's wild-type CDR3 ASSPTGGSPSPLH, the enrichment was 0.

On to […] (CDR3 as printed); P11A derived by comparing it with the table's wild-type CDR3 ASSPTGGSPSPLH, for which the enrichment came to 0.

As for […] (CDR3 as printed); S8M derived by comparing it with the table's wild-type CDR3 ASSPTGGSPSPLH, the enrichment worked out at 0.

In the case of […] (CDR3 as printed); G6Y derived by comparing it with the table's wild-type CDR3 ASSPTGGSPSPLH, the enrichment was found to be 0.

With […] (CDR3 as printed); P4G derived by comparing it with the table's wild-type CDR3 ASSPTGGSPSPLH, the enrichment turned out to be 0.

Turning to […] (CDR3 as printed); P4M derived by comparing it with the table's wild-type CDR3 ASSPTGGSPSPLH, the enrichment came to 0.

Regarding […] (CDR3 as printed); S10E derived by comparing it with the table's wild-type CDR3 ASSPTGGSPSPLH, the enrichment amounted to 0.

[…] (CDR3 as printed); S8V derived by comparing it with the table's wild-type CDR3 ASSPTGGSPSPLH: the enrichment amounted to 0.

Consider […] (CDR3 as printed); S10I derived by comparing it with the table's wild-type CDR3 ASSPTGGSPSPLH, for which the enrichment stood at 0.

As for […] (CDR3 as printed); T5P derived by comparing it with the table's wild-type CDR3 ASSPTGGSPSPLH, the enrichment was determined as 0.

On to […] (CDR3 as printed); S3F derived by comparing it with the table's wild-type CDR3 ASSPTGGSPSPLH, for which the enrichment was found to be 0.

As for […] (CDR3 as printed); A1D derived by comparing it with the table's wild-type CDR3 ASSPTGGSPSPLH, the enrichment was 0.

Regarding […] (CDR3 as printed); S3H derived by comparing it with the table's wild-type CDR3 ASSPTGGSPSPLH, the enrichment stood at 0.

With […] (CDR3 as printed); P4I derived by comparing it with the table's wild-type CDR3 ASSPTGGSPSPLH, the enrichment came out at 0.

[…] (CDR3 as printed); H13T derived by comparing it with the table's wild-type CDR3 ASSPTGGSPSPLH: the enrichment stood at 0.

Consider […] (CDR3 as printed); S10C derived by comparing it with the table's wild-type CDR3 ASSPTGGSPSPLH, for which the enrichment came to 0.

[…] (CDR3 as printed); S10P derived by comparing it with the table's wild-type CDR3 ASSPTGGSPSPLH: the enrichment was 0.

On to […] (CDR3 as printed); P9L derived by comparing it with the table's wild-type CDR3 ASSPTGGSPSPLH, for which the enrichment was found to be 0.

In the case of […] (CDR3 as printed); L12F derived by comparing it with the table's wild-type CDR3 ASSPTGGSPSPLH, the enrichment was 0.

For the variant […] (CDR3 as printed); A1N derived by comparing it with the table's wild-type CDR3 ASSPTGGSPSPLH, the enrichment was 0.

In the case of […] (CDR3 as printed); S3E derived by comparing it with the table's wild-type CDR3 ASSPTGGSPSPLH, the enrichment came to 0.

On to […] (CDR3 as printed); P9V derived by comparing it with the table's wild-type CDR3 ASSPTGGSPSPLH, for which the enrichment was 0.

For the variant […] (CDR3 as printed); A1T derived by comparing it with the table's wild-type CDR3 ASSPTGGSPSPLH, the enrichment is 0.

In the case of […] (CDR3 as printed); S10W derived by comparing it with the table's wild-type CDR3 ASSPTGGSPSPLH, the enrichment was 0.

As to […] (CDR3 as printed); S10G derived by comparing it with the table's wild-type CDR3 ASSPTGGSPSPLH, the enrichment came to 0.

For the variant […] (CDR3 as printed); L12E derived by comparing it with the table's wild-type CDR3 ASSPTGGSPSPLH, the enrichment is 0.

For […] (CDR3 as printed); A1E derived by comparing it with the table's wild-type CDR3 ASSPTGGSPSPLH, the enrichment was 0.

On to […] (CDR3 as printed); S10M derived by comparing it with the table's wild-type CDR3 ASSPTGGSPSPLH, for which the enrichment was 0.

Turning to […] (CDR3 as printed); S8W derived by comparing it with the table's wild-type CDR3 ASSPTGGSPSPLH, the enrichment was 0.

Turning to […] (CDR3 as printed); P4N derived by comparing it with the table's wild-type CDR3 ASSPTGGSPSPLH, the enrichment came out at 0.

With […] (CDR3 as printed); G6W derived by comparing it with the table's wild-type CDR3 ASSPTGGSPSPLH, the enrichment stood at 0.

Turning to […] (CDR3 as printed); T5M derived by comparing it with the table's wild-type CDR3 ASSPTGGSPSPLH, the enrichment amounted to 0.

For […] (CDR3 as printed); G6V derived by comparing it with the table's wild-type CDR3 ASSPTGGSPSPLH, the enrichment amounted to 0.

As for […] (CDR3 as printed); T5E derived by comparing it with the table's wild-type CDR3 ASSPTGGSPSPLH, the enrichment worked out at 0.

As to […] (CDR3 as printed); P9G derived by comparing it with the table's wild-type CDR3 ASSPTGGSPSPLH, the enrichment was 0.

On to […] (CDR3 as printed); P11T derived by comparing it with the table's wild-type CDR3 ASSPTGGSPSPLH, for which the enrichment turned out to be 0.

Take […] (CDR3 as printed); S2P derived by comparing it with the table's wild-type CDR3 ASSPTGGSPSPLH: the enrichment stood at 0.

Turning to […] (CDR3 as printed); T5I derived by comparing it with the table's wild-type CDR3 ASSPTGGSPSPLH, the enrichment turned out to be 0.

Turning to […] (CDR3 as printed); P9N derived by comparing it with the table's wild-type CDR3 ASSPTGGSPSPLH, the enrichment worked out at 0.

[…] (CDR3 as printed); P11Y derived by comparing it with the table's wild-type CDR3 ASSPTGGSPSPLH: the enrichment was 0.

Regarding […] (CDR3 as printed); L12Q derived by comparing it with the table's wild-type CDR3 ASSPTGGSPSPLH, the enrichment was 0.

Regarding […] (CDR3 as printed); S3R derived by comparing it with the table's wild-type CDR3 ASSPTGGSPSPLH, the enrichment amounted to 0.

As to […] (CDR3 as printed); A1I derived by comparing it with the table's wild-type CDR3 ASSPTGGSPSPLH, the enrichment was 0.

On to […] (CDR3 as printed); S10D derived by comparing it with the table's wild-type CDR3 ASSPTGGSPSPLH, for which the enrichment was 0.

Turning to […] (CDR3 as printed); S3P derived by comparing it with the table's wild-type CDR3 ASSPTGGSPSPLH, the enrichment came to 0.

Take […] (CDR3 as printed); S8N derived by comparing it with the table's wild-type CDR3 ASSPTGGSPSPLH: the enrichment worked out at 0.

As to […] (CDR3 as printed); G6I derived by comparing it with the table's wild-type CDR3 ASSPTGGSPSPLH, the enrichment stood at 0.

On to […] (CDR3 as printed); S8Y derived by comparing it with the table's wild-type CDR3 ASSPTGGSPSPLH, for which the enrichment is 0.

For […] (CDR3 as printed); S3C derived by comparing it with the table's wild-type CDR3 ASSPTGGSPSPLH, the enrichment was 0.

Consider […] (CDR3 as printed); G7K derived by comparing it with the table's wild-type CDR3 ASSPTGGSPSPLH, for which the enrichment turned out to be 0.

Turning to […] (CDR3 as printed); A1H derived by comparing it with the table's wild-type CDR3 ASSPTGGSPSPLH, the enrichment was 0.

As to […] (CDR3 as printed); T5K derived by comparing it with the table's wild-type CDR3 ASSPTGGSPSPLH, the enrichment amounted to 0.

For the variant […] (CDR3 as printed); P11W derived by comparing it with the table's wild-type CDR3 ASSPTGGSPSPLH, the enrichment was found to be 0.

Source of the values: article PMC13397619.
